Assay results from article PMC7304575, “Cryo-EM structure of the nonameric CsgG-CsgF complex and its implications for controlling curli biogenesis in Enterobacteriaceae” (PLoS Biology, 2020).

B1: chymotrypsin-digested CsgG (residues 47–252) of the CsgG-CsgF_(20–59) complex (domain or fragment, E. coli, UniProt P0AEA2 47-252, looked up)
chain: GKIFVSVYNIQDETGQFKPYPASNFSTAVPQSATAMLVTALKDSRWFIPLERQGLQNLLNERKIIRAAQENGTVAINNRIPLQSLTAANIMVEGSIIGYESNVKSGGVGARYFGIGADTQYQLDQIAVNLRVVNVSTGEILSSVNTSKTILSYEVQAGVFRFIDYQRLLEGEVGYTSNEPVMLCLMSAIETGVIFLINDGIDRGLW
notes: numbers count on the full-length precursor; The His tag goes with the C-terminal residues that chymotrypsin removed; source: E. coli BL21 (DE3), co-expressed with CsgF, purified (Ni-NTA), chymotrypsin proteolysis, size exclusion chromatography; not shown: His6, C-terminal, cleaved
B2: CsgF_(20–53)-GST (domain or fragment, E. coli, UniProt P0AE98 20-53, looked up)
chain: GTMTFQFRNPNFGGNPNNGAFLLNSAQAQNSYKD
notes: CsgF, E. coli, residues 20-53 (N-terminus of the mature CsgF); numbers count on the full-length precursor; also called CsgF_(20–53) fused to GST C-terminally; source: E. coli BL21 (DE3), purified; not shown: GST, C-terminal, kept
B3: CsgG with a C-terminal 6×His tag (natural protein, E. coli, UniProt P0AEA2 16-277, looked up)
chain: CLTAPPKEAARPTLMPRAQSYKDLTHLPAPTGKIFVSVYNIQDETGQFKPYPASNFSTAVPQSATAMLVTALKDSRWFIPLERQGLQNLLNERKIIRAAQENGTVAINNRIPLQSLTAANIMVEGSIIGYESNVKSGGVGARYFGIGADTQYQLDQIAVNLRVVNVSTGEILSSVNTSKTILSYEVQAGVFRFIDYQRLLEGEVGYTSNEPVMLCLMSAIETGVIFLINDGIDRGLWDLQNKAERQNDILVKYRHMSVPPES
notes: CsgG, E. coli K12 MG1655; the full-length csgG gene was expressed and the protein purified from outer membranes; the structure holds residues 16-272 with the C-terminal 5 residues invisible (so 16-277); numbers count on the full-length precursor; also called CsgGHis; C-terminally His-tagged CsgG; not shown: His6, C-terminal, kept

Tests used:
[1] = target: the molecule itself; experiment: cryo-EM structure; chymotrypsin-digested CsgG-CsgF_(20–59) complex in 20 mM Tris-HCl pH 8.0, 150 mM NaCl, 0.06% DDM; filaments on the grid; maps at 2.9 Å (head-to-head, D9) and 3.2 Å (head-to-tail, C9)
[2] = target: B3; experiment: pull-down; GST fusions or GST (approximately 0.1 mg) immobilised on glutathione sepharose, approximately 0.2 mg CsgG added, 1 hour at 4°C; washed with 20 mM Tris-HCl pH 7.5, 150 mM NaCl, 5% glycerol, 0.1% DDM; SDS-PAGE and anti-His western blot; details: both partners purified
[3] = target: the molecule itself; experiment: cryo-EM structure; full-length CsgG-CsgF complex, co-expressed and co-purified in DDM; map at 3.6 Å

With B1 the “stoichiometry N” value [1] was 9.

B2: binds [2].

For B3, the “stoichiometry N” value [3] was 9.
